Test results from patent US6962795 (CORVAS INTERNATIONAL, dated 2005).
Changes are numbered by the printed parent chain.

What was measured:
[1] = molecular target: T1, Mac-1 integrin complex (CD11b/CD18) (human, UniProt P11215 17-1152; P05107 23-769); assay: soluble NIF-1FL pre-incubated in varying amounts on LM2/Mac-1-coated wells before the phages
[2] = molecular target: T1, Mac-1 integrin complex (CD11b/CD18); assay: panning of a 1:1 mix of pAN-NIF-1FL and fd-tet phage on a Mac-1-coated well, acid elution, colony counts
[3] = molecular target: T1, Mac-1 integrin complex (CD11b/CD18); assay: ELISA on LM2-captured Mac-1, 3D2-HRP detection, Pichia supernatant
[4] = molecular target: T1, Mac-1 integrin complex (CD11b/CD18); assay: competition with biotinylated NIF-1FL on LM2-captured Mac-1, Pichia supernatant
[5] = molecular target: T1, Mac-1 integrin complex (CD11b/CD18); assay: competition ELISA with biotinylated mature NIF-1FL on LM2-captured Mac-1 (FIG. 18)

B1: recombinant mature NIF-1FL produced in Pichia pastoris (ligand)
chain: NEHNLRCPQNGTEMPGFNDSIRLQFLAMHNGYRSKLALGHISITEESESDDDDDFGFLPDFAPRASKMRYLEYDCEAEKSAYMSARNCSDSSSPPEGYDENKYIFENSNNISEAALKAMISWAKEAFNLNKTKEGEGVLYRSNHDISNFANLAWDAREKFGCAVVNCPLGEIDDETNHDGETYATTIHVVCHYPKINKTEGQPIYKVGTPCDDCSEYTKKADNTTSADPVCIPDDGVCFIGSKADYDSKEFYRFREL
modifications: N-glycosylated (Pichia); biotinylated on oxidised carbohydrate where used as labelled tracer
notes: also called rNIF; recombinant NIF
- binding result [1]: binds

B2: phages displaying mature NIF-1FL (NIF-1FL-pgIII fusion from pAN-NIF-1FL) (other)
chain: B1 chain
notes: An extra Ala codon stands between the pelB signal and NIF-1FL; also called NIF-phage; NIF-displaying phages; not shown: linker with a NotI site and a suppressed TAG amber codon between NIF-1FL and pgIII; product of filamentous phage M13 gene III (pgIII), fused at the C-terminus of NIF-1FL
- fold enrichment over non-displaying fd-tet phage [2]: 30 fold

B3: recombinant NIF-1FL/Δh, Gl1-7 produced in Pichia pastoris (ligand)
chain: B1 chain with N10Q, N18Q, N87Q, N110Q, N130Q, N197Q, N223Q
notes: Mature NIF-1FL with Asn to Gln at positions 10, 18, 87, 110, 130, 197 and 223; also called hNIF1/Δh, Gl1-7; AcaNIF1/Δh, Gl1-7
- binding result [3]: binds

B4: recombinant NIF-1FL/ΔGl1-5 produced in Pichia pastoris (ligand)
chain: B1 chain with N10Q, N18Q, N87Q, N110Q, N130Q
notes: Mature NIF-1FL with Asn to Gln at positions 10, 18, 87, 110 and 130; also called hNIF1/ΔGl1-5; AcaNIF1/ΔGl1-5
- binding result [3]: binds

B5: recombinant AcaNIF9 produced in Pichia pastoris (ligand)
chain: NEHDPTCPQNEVEMEKGFDDAMRLKFLALHNGYRSKLALGHVSITEESEDYDLYDLLYAPTASKMRYLEYDCEAEKSAYESAKKCQTTAFSSTKYDENLQVIEDPRDINHAALKAIISWATEAFNLNKTGEGVVYRSILNISNFANLAWDTREKVGCAVVKCPSGNTHVVCHYPKIVKKEGKPIYSIGKPCRGCNDYASKFFCHADEGVCIIASRDLDIYGRKKYFYPFREL
notes: Only partially purified when tested
- binding result [4]: binds

B6: recombinant AcaNIF6 produced in Pichia pastoris (ligand)
chain: NEHKPMCQQNETEMPGFNDLMRLQFLAMHNGYRSKLALGHISITDESESDYDYDYGFLPDFAPSASKMRYLEYDCEAERSAYTSASDCSDSSSPPEGYDENKYIFENSNNISEAALKAMISWAKEAFNLNKTEKGVLYQPNHDISNFANLAWDTREKFGCAVVNCPLGEIDADIYDEETYATTIHVVCHYPKINKTEGEPIYKVGTPCDDCSEYTKKADNTTSADPVCIPDDGVCFIGSKADYDSKEFYRFREL
notes: also called mature AcaNIF6
- binding result [3]: binds

B7: recombinant AcaNIF4 produced in Pichia pastoris (ligand)
chain: NEHKPMCERNETEMPGFNDSMRLQFLAMHNGYRSLLALGHVGISKQPIDDDYYDDDYYYFYSSYAPRASKMRYLEYDCEAEKSAYVSASNCSNISSPPEGYDENKYIFENSNNISEAALKAMISWAKEAFNLNKTEEGEGVLYRSNHDISNFANLAWDTREKFGCAVVNCPLGEIDTTSNRDGETYATAIHVVCHYPKILEKEEKQIYEVGKPCDRCSEYSKNANNITSPNWVCNDDDGVCFIGSKDDYISKEFYRFREL
notes: also called mature AcaNIF4
- binding result [5]: binds

B8: AceNIF3 produced in Pichia pastoris (pYAM7SP-AceNIF3) (ligand)
chain: NEHEPTCKQNNGSMTNELRRRFLRLHNGYRSILALGHVNISEESNETFLYAHRASRMRILDYDCDAEGSAYESAIKQCSSNKSSSAEYDENVYVIDNTYEDEVDPALKAISSWTSQAFNLTHAEEGIPYQWNDSVSDFANVAWDAREKLGCAVVTCDQGNTTHVVCHYGPKAANKTEPIYKVGVPCSNCTEYTRGDEEKVFCHADEGVCVINLRDLNSHLNTSLRYPPI
notes: Carries a hybrid N-terminus N-E-H-E-P-T-C-K-Q (first three residues from AcaNIF9); Tested as crude Pichia cell supernatant
- binding result [4]: binds
